Assay results as given in patent US20240066137A1, “NOVEL PROTEIN CONJUGATE, AND USE THEREOF FOR PREVENTING OR TREATING NONALCOHOLIC STEATOHEPATITIS, OBESITY AND DIABETES” (ONEGENE BIOTECHNOLOGY INC., priority 2020, published 2024).

Tests used:
Assay in all cases: cell-based or functional assay
[1] = target: IL-1RA acceptor (UniProt P14778)
[2] = target: GLP-1 acceptor (UniProt P43220)
[3] = target: GIP acceptor (UniProt P48546)
[4] = target: FGFR1/KLB acceptor (UniProt P11362)
FGFR1/KLB acceptor, sequence (P11362 22-822 limits assumed, chain 1 of 2): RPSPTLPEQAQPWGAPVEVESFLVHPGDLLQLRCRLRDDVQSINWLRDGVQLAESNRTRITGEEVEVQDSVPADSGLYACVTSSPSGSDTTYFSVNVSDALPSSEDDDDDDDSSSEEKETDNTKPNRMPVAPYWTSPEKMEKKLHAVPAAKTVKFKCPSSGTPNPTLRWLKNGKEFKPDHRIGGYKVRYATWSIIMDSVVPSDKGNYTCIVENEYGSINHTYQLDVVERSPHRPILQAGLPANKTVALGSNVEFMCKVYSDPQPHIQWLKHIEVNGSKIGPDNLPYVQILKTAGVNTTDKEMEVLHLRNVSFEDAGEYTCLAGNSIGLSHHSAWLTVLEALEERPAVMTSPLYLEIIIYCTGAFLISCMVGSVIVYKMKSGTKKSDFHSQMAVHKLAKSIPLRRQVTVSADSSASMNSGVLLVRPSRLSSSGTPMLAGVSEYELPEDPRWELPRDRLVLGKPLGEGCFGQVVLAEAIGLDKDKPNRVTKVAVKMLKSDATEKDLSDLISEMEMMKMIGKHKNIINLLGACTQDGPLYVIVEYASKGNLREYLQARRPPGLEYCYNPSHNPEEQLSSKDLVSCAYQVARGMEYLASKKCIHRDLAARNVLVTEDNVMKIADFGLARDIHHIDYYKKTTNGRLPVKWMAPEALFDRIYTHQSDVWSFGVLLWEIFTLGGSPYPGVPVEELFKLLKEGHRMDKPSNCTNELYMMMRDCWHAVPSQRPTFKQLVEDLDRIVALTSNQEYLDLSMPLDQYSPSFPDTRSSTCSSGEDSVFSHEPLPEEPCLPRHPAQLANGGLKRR
FGFR1/KLB acceptor, sequence (Q86Z14 whole entry, chain 2 of 2, further chain): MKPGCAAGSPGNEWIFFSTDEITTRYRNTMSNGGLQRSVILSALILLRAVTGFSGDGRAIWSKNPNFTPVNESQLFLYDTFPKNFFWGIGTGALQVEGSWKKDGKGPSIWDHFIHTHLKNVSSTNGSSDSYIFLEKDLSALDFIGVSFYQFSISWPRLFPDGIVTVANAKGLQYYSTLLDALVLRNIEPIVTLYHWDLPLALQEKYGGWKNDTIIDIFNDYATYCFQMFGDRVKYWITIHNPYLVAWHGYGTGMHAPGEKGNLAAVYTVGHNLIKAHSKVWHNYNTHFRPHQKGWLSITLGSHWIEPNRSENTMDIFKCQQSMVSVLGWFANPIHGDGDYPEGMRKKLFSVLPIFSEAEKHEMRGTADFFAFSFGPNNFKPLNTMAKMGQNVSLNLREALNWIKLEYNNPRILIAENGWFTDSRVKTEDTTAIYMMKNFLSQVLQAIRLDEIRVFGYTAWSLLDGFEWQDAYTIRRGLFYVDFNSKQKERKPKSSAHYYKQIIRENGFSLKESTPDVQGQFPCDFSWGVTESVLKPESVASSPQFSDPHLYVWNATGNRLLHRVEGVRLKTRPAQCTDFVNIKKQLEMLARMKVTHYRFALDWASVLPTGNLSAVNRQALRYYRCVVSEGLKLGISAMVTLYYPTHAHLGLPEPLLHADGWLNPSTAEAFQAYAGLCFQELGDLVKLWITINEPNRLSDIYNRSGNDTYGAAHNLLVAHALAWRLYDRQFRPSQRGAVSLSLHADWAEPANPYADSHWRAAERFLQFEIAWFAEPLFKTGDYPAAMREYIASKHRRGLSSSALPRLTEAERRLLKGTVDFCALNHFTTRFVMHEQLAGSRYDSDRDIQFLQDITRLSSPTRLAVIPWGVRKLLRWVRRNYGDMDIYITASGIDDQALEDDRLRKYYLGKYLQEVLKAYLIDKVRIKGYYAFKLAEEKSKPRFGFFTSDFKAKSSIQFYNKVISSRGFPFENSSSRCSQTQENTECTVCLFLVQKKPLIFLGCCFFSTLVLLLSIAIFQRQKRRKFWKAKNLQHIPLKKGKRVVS

GIP acceptor, sequence (P48546 22-466 limits assumed): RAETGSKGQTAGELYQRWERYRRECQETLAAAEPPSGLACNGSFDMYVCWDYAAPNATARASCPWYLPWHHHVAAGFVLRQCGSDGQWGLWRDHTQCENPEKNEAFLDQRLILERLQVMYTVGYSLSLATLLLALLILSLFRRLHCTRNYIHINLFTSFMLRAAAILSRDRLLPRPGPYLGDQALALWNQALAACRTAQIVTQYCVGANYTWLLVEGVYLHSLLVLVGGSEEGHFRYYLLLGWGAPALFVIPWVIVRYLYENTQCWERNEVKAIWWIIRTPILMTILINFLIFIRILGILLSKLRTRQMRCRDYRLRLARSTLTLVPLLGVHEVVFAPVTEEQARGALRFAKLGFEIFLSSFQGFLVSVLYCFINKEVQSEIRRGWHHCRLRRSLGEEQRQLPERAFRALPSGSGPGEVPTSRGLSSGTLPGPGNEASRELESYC
rhFGF21 (Native), sequence (Q9NSA1 29-209 limits assumed): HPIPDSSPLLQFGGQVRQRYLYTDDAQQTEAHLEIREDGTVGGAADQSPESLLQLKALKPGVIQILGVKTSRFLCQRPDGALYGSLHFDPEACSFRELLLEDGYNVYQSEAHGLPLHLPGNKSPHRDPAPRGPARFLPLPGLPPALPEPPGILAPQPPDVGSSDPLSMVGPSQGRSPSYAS
GLP-1 acceptor, sequence (P43220 24-463 limits assumed): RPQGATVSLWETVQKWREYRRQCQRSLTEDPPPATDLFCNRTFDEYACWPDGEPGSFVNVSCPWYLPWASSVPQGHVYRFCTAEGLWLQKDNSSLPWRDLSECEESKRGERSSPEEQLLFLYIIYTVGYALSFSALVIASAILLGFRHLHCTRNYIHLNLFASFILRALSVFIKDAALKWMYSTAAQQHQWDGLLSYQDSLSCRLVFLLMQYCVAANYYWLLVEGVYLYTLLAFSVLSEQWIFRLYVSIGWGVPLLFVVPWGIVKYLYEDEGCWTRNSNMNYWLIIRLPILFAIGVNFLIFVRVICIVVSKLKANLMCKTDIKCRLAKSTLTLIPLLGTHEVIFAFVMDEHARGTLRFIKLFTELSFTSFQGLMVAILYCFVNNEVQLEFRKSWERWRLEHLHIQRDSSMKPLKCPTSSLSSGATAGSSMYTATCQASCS
Dulaglutide (Fc fusion), sequence (chain): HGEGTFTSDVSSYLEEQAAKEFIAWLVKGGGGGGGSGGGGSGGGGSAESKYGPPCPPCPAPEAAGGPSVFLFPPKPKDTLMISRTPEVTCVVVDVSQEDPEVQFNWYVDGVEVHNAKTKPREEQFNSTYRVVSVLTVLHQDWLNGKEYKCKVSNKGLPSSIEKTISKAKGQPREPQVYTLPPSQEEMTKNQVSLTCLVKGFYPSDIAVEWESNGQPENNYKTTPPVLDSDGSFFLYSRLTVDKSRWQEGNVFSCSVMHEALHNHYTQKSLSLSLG
IL-1RA acceptor, sequence (P14778 18-569 limits assumed): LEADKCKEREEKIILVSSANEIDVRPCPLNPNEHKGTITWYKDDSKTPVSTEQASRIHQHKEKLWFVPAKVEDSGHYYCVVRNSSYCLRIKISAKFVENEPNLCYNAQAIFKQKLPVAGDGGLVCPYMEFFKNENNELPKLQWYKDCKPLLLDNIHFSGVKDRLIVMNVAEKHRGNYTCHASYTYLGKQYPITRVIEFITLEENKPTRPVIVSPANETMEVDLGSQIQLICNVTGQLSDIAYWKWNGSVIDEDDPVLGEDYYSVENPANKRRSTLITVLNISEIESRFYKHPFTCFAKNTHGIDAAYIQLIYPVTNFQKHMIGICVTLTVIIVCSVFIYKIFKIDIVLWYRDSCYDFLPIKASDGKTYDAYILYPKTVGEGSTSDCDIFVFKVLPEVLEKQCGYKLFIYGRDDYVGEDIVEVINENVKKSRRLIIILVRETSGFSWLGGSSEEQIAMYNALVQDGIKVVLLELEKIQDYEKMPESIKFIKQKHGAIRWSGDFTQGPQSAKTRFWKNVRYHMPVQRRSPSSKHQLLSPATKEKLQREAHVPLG

rhIL-1RA (Native) (from UniProt P18510 26-177) (ligand)
IC50, NF-κB reporter gene luciferase assay with IL-1β; Mean [1]: 0.0475 nM | IC50, NF-κB reporter gene luciferase assay with IL-1β; n = 2 [1]: 0.0686 nM | IC50, NF-κB reporter gene luciferase assay with IL-1β; run 1 [1]: 0.0399 nM | IC50, NF-κB reporter gene luciferase assay with IL-1β; run 2 [1]: 0.0515 nM | IC50, NF-κB reporter gene luciferase assay with IL-1β; run 3 [1]: 0.0466 nM | IC50, NF-κB reporter gene luciferase assay with IL-1β; run 4 [1]: 0.0519 nM

Dulaglutide (Fc fusion)
EC50, cAMP accumulation assay; Mean [2]: 0.00107 nM | EC50, cAMP accumulation assay; Stable cell line, n = 6 [2]: 0.00145 nM | EC50, cAMP accumulation assay; run 1 [2]: 0.00123 nM | EC50, cAMP accumulation assay; run 2 [2]: 0.0009 nM

GIP(1-39) (from UniProt P09681 52-90) (peptide)
EC50, cAMP accumulation assay; Mean [3]: 0.0148 nM | EC50, cAMP accumulation assay; run 1 [3]: 0.0154 nM | EC50, cAMP accumulation assay; run 2 [3]: 0.0141 nM

rhFGF21 (Native) (from UniProt Q9NSA1 29-209) (ligand)
EC50, FGFR1/KLB functional assay; Mean [4]: 0.82 nM | EC50, FGFR1/KLB functional assay; n = 4 [4]: 1.17 nM | EC50, FGFR1/KLB functional assay; run 1 [4]: 0.75 nM | EC50, FGFR1/KLB functional assay; run 2 [4]: 0.88 nM
